Laboratory results taken from PMC6156451 (Frontiers in Molecular Neuroscience, 2018).
No end group written: not given here.

Experiments:
[1] = biological target: myristoylated guanylyl cyclase-activating protein 2 (GCAP-2), bovine (bovine) (UniProt P51177); test: other fluorescence titration; GCAP-2 mixed with increasing concentrations of peptide in 20 mM HEPES pH 7.5, 20°C; excitation 280 nm, emission 350 nm; calcium not controlled, ~2 uM
[2] = biological target: myristoylated guanylyl cyclase-activating protein 2 (GCAP-2), bovine (bovine) (UniProt P51177); test: SPR; GCAP-2 immobilised by amine coupling on 2D CMD sensor slides; peptides injected at 0.5-40 uM (peptide 3: 5-40 uM); 20 mM HEPES, 0.05% Tween, pH 7.5, 22°C, 30 ul/min; two-state model with equimolar binding; calcium not controlled, ~2 uM
GCAP-2 [3] = biological target: T1, GCAP-2 (Bos taurus, UniProt P51177); test: Surface plasmon resonance (SPR), GCAP-2/ROS-GC peptide interaction; format: binding, bovine
T1 construct: made in house; host or cells: E. coli BL21 (DE3), vector pET-11a, co-expressed with yeast N-myristoyltransferase I (pBB131)
T1 sequence (P51177 1-204): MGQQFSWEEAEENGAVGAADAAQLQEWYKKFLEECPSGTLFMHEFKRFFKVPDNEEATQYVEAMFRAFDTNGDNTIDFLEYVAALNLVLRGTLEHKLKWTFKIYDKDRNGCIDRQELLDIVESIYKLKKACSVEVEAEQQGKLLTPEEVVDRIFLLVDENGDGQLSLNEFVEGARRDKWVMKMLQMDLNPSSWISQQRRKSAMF

GCAP-2 [4] = biological target: T1, GCAP-2; test: Fluorescence spectroscopy titration of ROS-GC peptides to GCAP-2; parameters: species or system bovine; details: excitation 280 nm, emission 350 nm, 20 mM HEPES pH 7.5, 20°C, calcium ~2 μM, read-out: KD1 (first binding event)
Procedure: Fluorescence measurements were carried out with a Jasco Spectrofluorometer FP-8200, equipped with a Jasco MCB-100 Mini Circulation Bath (20°C, xenon lamp, data interval 0.5 nm, accumulation number 3). The excitation wavelength was 280 nm, fluorescence emission was recorded at 350 nm to exclude self-fluorescence of non-bound peptide. […] As a negative control, separate recordings were performed with N-acetyl-L-tryptophanamide or N-acetyl-L-tyrosinamide, respectively.
A wavelength of 350 nm was chosen to rule out that changes in fluorescence originate from an increased concentration of non-bound peptide.

[5] = biological target: ROS-GC1 peptide 1 peptide 1 (Bos taurus) (UniProt P55203); test: fluorescence
ROS-GC1 peptide 1 peptide 1 (Bos taurus), sequence (P55203 57-1110): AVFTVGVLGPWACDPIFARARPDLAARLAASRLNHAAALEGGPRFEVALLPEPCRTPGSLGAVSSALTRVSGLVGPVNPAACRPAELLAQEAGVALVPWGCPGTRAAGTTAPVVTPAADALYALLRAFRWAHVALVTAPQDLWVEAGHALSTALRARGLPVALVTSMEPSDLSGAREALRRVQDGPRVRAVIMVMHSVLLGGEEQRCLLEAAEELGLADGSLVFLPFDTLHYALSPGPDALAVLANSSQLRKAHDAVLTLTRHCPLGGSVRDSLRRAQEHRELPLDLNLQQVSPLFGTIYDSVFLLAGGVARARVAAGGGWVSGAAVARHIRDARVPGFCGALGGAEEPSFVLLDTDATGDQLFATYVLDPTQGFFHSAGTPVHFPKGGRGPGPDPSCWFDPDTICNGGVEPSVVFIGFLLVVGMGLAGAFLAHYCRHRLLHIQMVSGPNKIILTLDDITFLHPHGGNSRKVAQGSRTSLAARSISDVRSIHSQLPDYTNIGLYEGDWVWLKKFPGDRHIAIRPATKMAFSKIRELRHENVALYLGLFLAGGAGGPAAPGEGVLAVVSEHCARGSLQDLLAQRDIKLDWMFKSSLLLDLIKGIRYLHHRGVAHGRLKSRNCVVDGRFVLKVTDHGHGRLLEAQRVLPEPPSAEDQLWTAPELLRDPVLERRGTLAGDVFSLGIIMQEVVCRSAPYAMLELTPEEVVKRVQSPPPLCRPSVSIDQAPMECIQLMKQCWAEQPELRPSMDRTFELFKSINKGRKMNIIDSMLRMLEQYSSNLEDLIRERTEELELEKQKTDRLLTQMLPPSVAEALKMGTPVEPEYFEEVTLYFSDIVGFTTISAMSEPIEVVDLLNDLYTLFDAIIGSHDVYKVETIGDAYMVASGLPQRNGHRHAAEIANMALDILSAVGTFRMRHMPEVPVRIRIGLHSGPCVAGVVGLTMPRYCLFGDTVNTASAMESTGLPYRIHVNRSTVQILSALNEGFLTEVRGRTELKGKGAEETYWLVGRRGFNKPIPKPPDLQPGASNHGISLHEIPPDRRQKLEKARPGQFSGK

ROS-GC1 peptide 2 (aa 942-981), N-terminal extension of peptide 1 with a part of the catalytic domain
KD1 (first binding event; set by extrapolation) [1]: 1 µM | Kd [2]: 3000 nM

ROS-GC1 peptide 1 (aa 965-981), postulated GCAP-2 binding motif
KD1 (first binding event) [1]: 4.2 µM | KD2 (second binding event) [1]: 244 µM | Kd [2]: 1120 nM

YRIHVNRSTVQILSALN [Peptide 1]
Kd (GCAP-2 [3]): 2360 nM | Kd (GCAP-2 [4]): 4200 nM

GCAP-2 (from UniProt P51177)
Kd [5]: 244000 nM
